T1: Ala mutant having 3-amino acid substitution, SEQ ID NO: 45
T1 peptide: EENAAAQWMQDEMEIGY

T2: Ala mutant of TA0096, SEQ ID NO: 34
T2 peptide: EENMDDQAMQDEMEIGY

T3: Ala mutant of TA0096, SEQ ID NO: 29
T3 peptide: EEAMDDQWMQDEMEIGY

T4: Ala mutant of TA0096, SEQ ID NO: 39
T4 peptide: EENMDDQWMQDEAEIGY

T5: Ala mutant of TA0096, SEQ ID NO: 43
T5 peptide: EENMDDQWMQDEMEIGA

T6: Ala mutant of TA0096, SEQ ID NO: 27
T6 peptide: AENMDDQWMQDEMEIGY

T7: Ala mutant of TA0096, SEQ ID NO: 30
T7 peptide: EENADDQWMQDEMEIGY

T8: Ala mutant having 3-amino acid substitution, SEQ ID NO: 49
T8 peptide: EENMDDQWMQDEMEIAA

T9: Ala mutant of TA0096, SEQ ID NO: 40
T9 peptide: EENMDDQWMQDEMAIGY

T10: Ala mutant of TA0096, SEQ ID NO: 41
T10 peptide: EENMDDQWMQDEMEAGY

T11: Ala mutant having 3-amino acid substitution, SEQ ID NO: 47
T11 peptide: EENMDDQWMAAAMEIGY

T12: Ala mutant of TA0096, SEQ ID NO: 31
T12 peptide: EENMADQWMQDEMEIGY

T13: Ala mutant of TA0096, SEQ ID NO: 35
T13 peptide: EENMDDQWAQDEMEIGY

T14: Ala mutant of TA0096, SEQ ID NO: 37
T14 peptide: EENMDDQWMQAEMEIGY

T15: Ala mutant of TA0096, SEQ ID NO: 42
T15 peptide: EENMDDQWMQDEMEIAY

T16: TA0096 (peptide antigen corresponding to positions 340 to 356 of PAD4)
T16 peptide: EENMDDQWMQDEMEIGY

T17: Ala mutant having 3-amino acid substitution, SEQ ID NO: 44
T17 peptide: AAAMDDQWMQDEMEIGY


Tests used:
[1] = target: T18, full-length recombinant human PAD4 (human, UniProt Q9UM07 1-663); assay: ELISA, coated human PAD4; antibody 0.015625 ug/mL
T18 construct: Full-length recombinant; also called peptidylarginine deiminase 4

[2] = target: T1, Ala mutant having 3-amino acid …; assay: ELISA, 3-amino acid Ala mutants
Method: (§1) The epitope of each of A11 etc. was identified by alanine scan. Specifically, the following procedures (i) to (iii) were carried out. (i) Each amino acid residue of the antigen sequence (SEQ ID NO: 1) was replaced by another amino acid one by one, and 17 different Ala mutants (SEQ ID Nos: 27 to 43) were synthesized. (ii) The reactivity of each of the Ala mutants toward a test antibody was evaluated (ELISA).
Note that, as additional experiments, 6 different Ala mutants having 3-amino acid substitution (SEQ ID NOs: 44 to 49) were likewise examined in the experiments.

[3] = target: T18, full-length recombinant human PAD4; assay: ELISA, coated human PAD4; antibody 0.25 ug/mL
[4] = target: T19, full-length recombinant mouse PAD4 (mouse, UniProt Q9Z183 1-666); assay: ELISA, coated mouse PAD4; antibody 0.0039063 ug/mL
T19 construct: mature; Full-length recombinant

[5] = target: T2, Ala mutant of TA0096, SEQ ID NO: 34; assay: ELISA, alanine scan (position 347)
Method: as §1
The “96 pAb” designated in the table refers to antiserum as obtained by immunizing a chicken with TA0096 (SEQ ID NO: 1). The 96 pAb, which is an anti-PAD4 polyclonal antibody, can substantially keep the affinity toward PAD4 even if any of single amino acids of PAD4 is replaced.

[6] = target: T18, full-length recombinant human PAD4; assay: ELISA, coated human PAD4; antibody 0.0625 ug/mL
[7] = target: T19, full-length recombinant mouse PAD4; assay: ELISA, coated mouse PAD4; antibody 0.015625 ug/mL
[8] = target: T18, full-length recombinant human PAD4; assay: ELISA, coated human PAD4; antibody 0.0002441 ug/mL
[9] = target: T19, full-length recombinant mouse PAD4; assay: ELISA, coated mouse PAD4; antibody 0.0625 ug/mL
[10] = target: full-length recombinant human or mouse PAD4 (species used for Table 7 and FIG. 7 not stated); assay: cell-based or functional assay
[11] = target: T19, full-length recombinant mouse PAD4; assay: ELISA, coated mouse PAD4; antibody 0.0009766 ug/mL
[12] = target: T19, full-length recombinant mouse PAD4; assay: ELISA, coated mouse PAD4; antibody 0.0002441 ug/mL
[13] = target: T19, full-length recombinant mouse PAD4; assay: ELISA, coated mouse PAD4; antibody 0.25 ug/mL
[14] = target: T19, full-length recombinant mouse PAD4; assay: ELISA, coated mouse PAD4; antibody 1 ug/mL
[15] = target: T3, Ala mutant of TA0096, SEQ ID NO: 29; assay: ELISA, coated peptide
[16] = target: T4, Ala mutant of TA0096, SEQ ID NO: 39; assay: ELISA, coated peptide
[17] = target: T5, Ala mutant of TA0096, SEQ ID NO: 43; assay: ELISA, coated peptide
[18] = target: T6, Ala mutant of TA0096, SEQ ID NO: 27; assay: ELISA, coated peptide
[19] = target: T7, Ala mutant of TA0096, SEQ ID NO: 30; assay: ELISA, coated peptide
[20] = target: T8, Ala mutant having 3-amino acid …; assay: ELISA, coated peptide
[21] = target: T9, Ala mutant of TA0096, SEQ ID NO: 40; assay: ELISA, coated peptide
[22] = target: T10, Ala mutant of TA0096, SEQ ID NO: 41; assay: ELISA, coated peptide
[23] = target: T11, Ala mutant having 3-amino acid …; assay: ELISA, coated peptide
[24] = target: T12, Ala mutant of TA0096, SEQ ID NO: 31; assay: ELISA, coated peptide
[25] = target: T13, Ala mutant of TA0096, SEQ ID NO: 35; assay: ELISA, coated peptide
[26] = target: T14, Ala mutant of TA0096, SEQ ID NO: 37; assay: ELISA, coated peptide
[27] = target: T2, Ala mutant of TA0096, SEQ ID NO: 34; assay: ELISA, coated peptide
[28] = target: T15, Ala mutant of TA0096, SEQ ID NO: 42; assay: ELISA, coated peptide
[29] = target: T16, TA0096 (peptide antigen corresponding …); assay: ELISA, coated peptide
[30] = target: T17, Ala mutant having 3-amino acid …; assay: ELISA, coated peptide

T19 sequence (Q9Z183 whole entry): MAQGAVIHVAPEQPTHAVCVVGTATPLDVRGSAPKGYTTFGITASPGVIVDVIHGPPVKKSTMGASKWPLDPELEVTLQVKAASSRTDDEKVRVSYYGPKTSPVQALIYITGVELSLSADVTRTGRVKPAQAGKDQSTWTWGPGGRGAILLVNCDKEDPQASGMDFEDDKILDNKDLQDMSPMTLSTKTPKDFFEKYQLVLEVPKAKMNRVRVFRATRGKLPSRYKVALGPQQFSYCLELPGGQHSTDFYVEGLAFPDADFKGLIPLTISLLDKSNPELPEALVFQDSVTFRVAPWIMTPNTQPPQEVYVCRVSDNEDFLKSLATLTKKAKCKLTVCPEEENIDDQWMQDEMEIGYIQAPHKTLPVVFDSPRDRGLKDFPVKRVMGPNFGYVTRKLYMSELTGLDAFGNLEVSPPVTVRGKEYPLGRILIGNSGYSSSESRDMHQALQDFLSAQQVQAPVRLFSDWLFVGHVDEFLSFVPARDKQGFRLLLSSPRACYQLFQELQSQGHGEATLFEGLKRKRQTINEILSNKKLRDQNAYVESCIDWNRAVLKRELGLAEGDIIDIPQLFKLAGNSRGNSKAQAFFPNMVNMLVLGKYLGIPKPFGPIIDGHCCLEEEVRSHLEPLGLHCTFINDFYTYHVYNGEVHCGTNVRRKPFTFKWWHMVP
T18 sequence (Q9UM07 whole entry): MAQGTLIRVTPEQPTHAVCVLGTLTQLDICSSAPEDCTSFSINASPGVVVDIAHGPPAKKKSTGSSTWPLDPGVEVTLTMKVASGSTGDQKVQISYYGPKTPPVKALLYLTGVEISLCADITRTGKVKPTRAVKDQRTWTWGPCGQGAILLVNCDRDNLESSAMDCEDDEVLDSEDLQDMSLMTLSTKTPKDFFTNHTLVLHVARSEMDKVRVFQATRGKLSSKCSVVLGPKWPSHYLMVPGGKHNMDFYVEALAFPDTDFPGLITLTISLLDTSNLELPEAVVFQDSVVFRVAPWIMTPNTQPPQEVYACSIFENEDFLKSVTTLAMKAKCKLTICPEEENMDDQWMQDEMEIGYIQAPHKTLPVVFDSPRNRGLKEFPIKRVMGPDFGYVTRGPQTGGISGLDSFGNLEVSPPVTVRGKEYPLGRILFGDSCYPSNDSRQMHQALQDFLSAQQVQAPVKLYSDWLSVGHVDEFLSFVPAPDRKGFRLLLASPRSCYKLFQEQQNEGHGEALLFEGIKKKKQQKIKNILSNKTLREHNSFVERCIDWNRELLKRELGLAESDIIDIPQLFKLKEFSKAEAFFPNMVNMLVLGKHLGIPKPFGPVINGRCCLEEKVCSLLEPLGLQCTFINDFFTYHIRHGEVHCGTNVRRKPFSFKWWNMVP

| Binder | OD 490/630 nm [1] | binding result [2] | OD 490/630 nm [3] | OD 490/630 nm [4] | binding result [5] | OD 490/630 nm [6] | OD 490/630 nm [7] | OD 490/630 nm [8] | OD 490/630 nm [9] | Relative citrullination activity [10] | OD 490/630 nm [11] | OD 490/630 nm [12] | OD 490/630 nm [13] | OD 490/630 nm [14] | OD 490/630 nm [15] | OD 490/630 nm [16] | OD 490/630 nm [17] | OD 490/630 nm [18] | OD 490/630 nm [19] | OD 490/630 nm [20] | also measured |
| --- | --- | --- | --- | --- | --- | --- | --- | --- | --- | --- | --- | --- | --- | --- | --- | --- | --- | --- | --- | --- | --- |
| G8 (antibody, V domains shown, Chicken variable regions in a mouse chimeric antibody (IgG1); also called anti-PAD4 antibody G8) VH: AVTLDESGGGLQTPGGALSLVCKASGFTFSTYAMGWMRQAPGKGLEYVAAIRNDGSWTGYGAAVKGRATILRDNGQSTVRLQLSNLRAEDTGTYYCAKYTGSSGGSIGAWGHGTEVIVS VL: ASTQPSSVSANLGGTVEITCSGGNRNYYYGWYQQKSPGSAPVTLIYANDKRPSNIPSRFSGSKSGSTGTLTITGVQAEDEAVYFCGTADTGKYVFGAGTTLTVL | 2.08 | no binding | 2.1 | 1.42 | no binding | 2.12 | 2.25 | 0.184 | 2.22 | 63 relative to PBS = 100 | 0.555 | 0.205 | 2.25 | 2.26 | 1.91 | 1.88 | 1.92 | 1.96 | 1.93 | 1.86 | OD 490/630 nm [21]: 1.89; OD 490/630 nm [22]: 1.85; OD 490/630 nm [23]: 1.86; OD 490/630 nm [24]: 1.85; OD 490/630 nm [25]: 0.233; OD 490/630 nm [26]: 1.88; OD 490/630 nm [27]: 0.04; OD 490/630 nm [28]: 1.86; OD 490/630 nm [29]: 1.88; OD 490/630 nm [30]: 1.9 |
| H7 (antibody, V domains shown, Chicken variable regions in a mouse chimeric antibody (IgG1); also called anti-PAD4 antibody H7) VH: AVTLDESGGGLQTPGGALSLVCKASGFTFSTYAMGWMRQAPGKGLEYVAAIRNDGSWTGYGAAVKGRATILRDNGQSTVRLQLSNLRAEDTGTYYCAKYTGSSGGSIGAWGHGTEVIVS VL: ASTQPSSVSANPGGTVEITCSGGSGRYYYGWYQQKSPGSAPVTVIYSSTHRPSNIPSRFSGSKSGSTATLTITGVQAEDEAVYFCGTADSSSYVFGAGTTLTVL | 2.07 | no binding | 2.11 | 1.41 | no binding | 2.12 | 2.26 | 0.217 | 2.29 | 35 relative to PBS = 100 | 0.55 | 0.224 | 2.31 | 2.3 | 1.9 | 1.81 | 1.87 | 1.9 | 1.95 | 1.86 | OD 490/630 nm [21]: 1.86; OD 490/630 nm [22]: 1.83; OD 490/630 nm [23]: 1.67; OD 490/630 nm [24]: 0.462; OD 490/630 nm [25]: 0.065; OD 490/630 nm [26]: 1.86; OD 490/630 nm [27]: 0.066; OD 490/630 nm [28]: 1.85; OD 490/630 nm [29]: 1.82; OD 490/630 nm [30]: 1.9 |

From US20180044434A1 (PUBLIC UNIVERSITY CORPORATION YOKOHAMA CITY UNIVERSITY, published 2018)
